From US20050107585A1 (UNIVERSITY OF KANSAS, published 2005) come the findings set out here.

The target in assay [1] is T1, ICAM-1 on NOD mouse APC / spleen cells (mouse (NOD), UniProt P13597 28-537).
T1 construct: whole, on cells; Native ICAM-1 on live NOD spleen cells
Nature of the assay: co-capping, fluorescence microscopy, T-depleted spleenocytes of NOD mice given the BPI i.v. The method, then: To test the ability of the BPI peptide to link MHC-II and ICAM-1 molecules on the APC surface, we used a modification of a co-capping experiment originally described for monoclonal antibodies. […] Antibody-bound cells are then incubated with streptavidin (37 C×15 min.) to cap the MHC-II molecules on the APC surface. The cells were transferred to ice and labeled with a fluorescent (PE) monoclonal antibody to ICAM-1 (3E2). The cells are plated and observed for evidence that a given BPI links ICAM-1 into the MHC-II cap, i.e., by standard fluorescence microscopy and image analysis.

Assay [2] has as its target T1, ICAM-1 on NOD mouse APC / spleen cells. Description: flow cytometry on live APC, blocking by mAb. The method, then:
J. Immunol. 2337-2344 (1994). Spleen cell density-gradient fractions from normal (unimmunized) NOD, BALB/c and other MHC congenic strains were incubated in round bottom 96-well plates with increasing concentrations of individual biotinylated peptides at 37° C.,5% CO₂ for 16 hours. Following binding of the BPI to the APC, Avidin-FITC was incubated with the cells on ice for 30 minutes, followed bybiotinylated anti-Avidin for 1 hour, then again with Avidin-FITC. For BPI titrations, increasing concentrations (0.1-100 μM) of the biotinylated derivatives in sterile 0.5% BSA-PBS were incubated with the APC for 16 hours as above.
To test for competitive inhibition of BPI binding with unlabeled peptides or monoclonal antibodies to MHC-II and ICAM-1 on live APC, freshly isolated fractions of spleen cells were incubated with the previously biotinylated BPI. However, for this portion of the experiment, the experimental wells contained various unlabeled peptides (e.g., antigenic peptides or LFA-1 peptides), and/or monoclonal antibody (e.g., anti-MHC-II or anti-ICAM-1 mAb) inhibitors. Negative selection methods with monoclonal antibodies conjugated to magnetic particles were used to enrich the spleen cell fractions for B cells, macrophages, or dendritic cells as well as to examine differences in BPI binding to these different populations. […]
(In general: In flow cytometry, cells or beads pass a laser one at a time.)

Where no end group is shown, it is not given here. [ ]: non-standard residue; d: D form. Ahx = NCCCCCC(=O)O

T1 sequence (P13597 28-537): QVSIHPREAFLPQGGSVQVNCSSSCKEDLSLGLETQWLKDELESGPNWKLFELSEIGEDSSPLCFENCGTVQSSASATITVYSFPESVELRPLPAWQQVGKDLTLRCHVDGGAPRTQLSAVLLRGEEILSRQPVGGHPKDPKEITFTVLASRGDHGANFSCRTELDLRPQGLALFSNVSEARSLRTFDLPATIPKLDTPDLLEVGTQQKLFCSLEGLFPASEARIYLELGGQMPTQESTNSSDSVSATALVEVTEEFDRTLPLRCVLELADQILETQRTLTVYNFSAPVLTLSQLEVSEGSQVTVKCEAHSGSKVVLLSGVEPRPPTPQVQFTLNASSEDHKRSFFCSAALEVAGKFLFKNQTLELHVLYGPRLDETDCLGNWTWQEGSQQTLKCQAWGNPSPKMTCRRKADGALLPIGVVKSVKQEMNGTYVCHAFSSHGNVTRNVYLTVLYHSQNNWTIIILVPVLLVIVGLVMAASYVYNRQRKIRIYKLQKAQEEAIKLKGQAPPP

With EIAPVFVLLE[Ahx]G[Ahx]G[Ahx]ITDGEATDSG (also called diabetes BPI) [EGAD-BPI (GAD65(208-217)-[Ac-G-Ac-G-Ac]-CD11a (237-247)), unlabeled], in assay [1], the binding result is recorded as “binds”.
With EIAPVFVLLE[Ahx]G[Ahx]G[Ahx]ITDGEATDSG (also: biotinylated with NHS-Biotin, site not given here, also called diabetes BPI; GAD 65 BPI) [biotinylated EGAD-BPI (GAD65(208-217)-[Ac-G-Ac-G-Ac]-CD11a (237-247))], the binding result in assay [2] is given as “binds”.
